What all share (assay): HPLC, steroid hydroxylation rate, hyperbolic fit
Holding throughout (assay type): biochemical, Bacillus subtilis
What all share (conditions): 1 mM NADPH, redox partners Fdr_0978 (4 μM) and Fdx_1499 (20 μM), 2 mM MgCl2, pH 8.0, 30°C

In series [1] the test system is T1, [H][C@@]12CC[C@H](O)[C@@]1(C)CCC1=C3CCC(=O)C=C3CC[C@]12[H].
T1 construct: assayed with separate redox partners Fdr_0978/Fdx_1499
The text has this:
(§1) HPLC, steroid hydroxylation rate, hyperbolic fit on CYP109B1

Series [2] concerns C[C@]12CC[C@H]3[C@@H](CCC4=CC(=O)CC[C@@]43C)[C@@H]1CC[C@@H]2O.
From the text: as §1

The test system of series [3] is T2, C[C@]12CC[C@H]3[C@@H](CCC4=CC(=O)CC[C@@H]43)[C@@H]1CC[C@@H]2O.
T2 construct: assayed with separate redox partners Fdr_0978/Fdx_1499
From the text: as §1

Series [4] has as its system C[C@]12CC[C@H]3[C@@H](CCC4=CC(=O)C=C[C@@]43C)[C@@H]1CC[C@@H]2O.
From the text: as §1

Broadly, the Km is the concentration of substrate that gives half-maximal velocity. Broadly, the kcat is the number of substrate molecules converted per active site and unit of time at saturation. In general, kcat/Km refers to the second-order rate constant that governs catalysis at low substrate concentration. Take “CYP109B1 (Bacillus subtilis subsp. subtilis str. 168)”: the Km in series [1] worked out at 163.1 ± 38.4 µM; in series [2] it was 83.7 ± 20.4 µM; in series [3], 136.3 ± 18.4 µM; in series [4], 193.1 ± 38.2 µM. For the same substance, the kcat in series [1] amounted to 0.197 ± 0.0117 s⁻¹; in series [2], 0.0783 ± 0.005 s⁻¹; in series [3], 0.0717 ± 0.00167 s⁻¹; in series [4] it was 0.0583 ± 0.00333 s⁻¹. The kcat/Km in series [1] was 1200 M⁻¹ s⁻¹; in series [2], 933 M⁻¹ s⁻¹; in series [3], 517 M⁻¹ s⁻¹; in series [4], 300 M⁻¹ s⁻¹.
